Results as given in publication PMC3589492, “Intersubunit Ionic Interactions Stabilize the Nucleoside Diphosphate Kinase of Mycobacterium tuberculosis” (PLoS ONE, 2013).

Molecular target: the molecule itself
Test: SEC; Superose 12 column, 50 mM Hepes pH 7.4, 150 mM sodium chloride, 0.4 mL/min, calibrated with molecular weight markers

B1: D93N mutant of the nucleoside diphosphate kinase of Mycobacterium tuberculosis (enzyme)
chain: MTERTLVLIKPDGIERQLIGEIISRIERKGLTIAALQLRTVSAELASQHYAEHEGKPFFGSLLEFITSGPVVAAIVEGTRAIAAVRQLAGGTNPVQAAAPGTIRGDFALETQFNLVHGSDSAESAQREIALWFPGA
notes: No tag is mentioned; also called D93N Mt-NDPK
  stoichiometry N: 6
